From US20190153066A1 (IMMATICS BIOTECHNOLOGIES, published 2019) come the findings set out here.

No end group written: not given here.

First the molecules themselves.
B1: peptide TILPGNLQSW (SEQ ID NO: 12) (peptide)
peptide: TILPGNLQSW
B2: peptide AVMTDLPVI (SEQ ID NO: 16) (peptide)
peptide: AVMTDLPVI
B3: peptide VLQDELPQL (SEQ ID NO: 20) (peptide)
peptide: VLQDELPQL
B4: peptide LLLPLLPPLSPS (SEQ ID NO: 6) (peptide)
peptide: LLLPLLPPLSPS
modifications: also: trifluoroacetate salt
B5: peptide VLYDNTQLQL (SEQ ID NO: 17) (peptide)
peptide: VLYDNTQLQL
B6: peptide EMDSTVITV (SEQ ID NO: 3) (peptide)
peptide: EMDSTVITV
B7: peptide SVIDSLPEI (SEQ ID NO: 15) (peptide)
peptide: SVIDSLPEI
B8: peptide YGIEFVVGV (SEQ ID NO: 14) (peptide)
peptide: YGIEFVVGV
B9: peptide VLPRAFTYV (SEQ ID NO: 13) (peptide)
peptide: VLPRAFTYV
B10: peptide SLLSELLGV (SEQ ID NO: 23) (peptide)
peptide: SLLSELLGV
B11: peptide YVISQVFEI (SEQ ID NO: 32) (peptide)
peptide: YVISQVFEI
B12: peptide FLLEAQNYL (SEQ ID NO: 4) (peptide)
peptide: FLLEAQNYL
B13: peptide LLLSDPDKVTI (SEQ ID NO: 7) (peptide)
peptide: LLLSDPDKVTI
B14: peptide SAFGFPVIL (SEQ ID NO: 22) (peptide)
peptide: SAFGFPVIL
B15: peptide RLAKLTAAV (SEQ ID NO: 9) (peptide)
peptide: RLAKLTAAV
B16: peptide ISAPLVKTL (SEQ ID NO: 24) (peptide)
peptide: ISAPLVKTL
B17: peptide AAYPEIVAV (SEQ ID NO: 2) (peptide)
peptide: AAYPEIVAV
B18: peptide IAFPTSISV (SEQ ID NO: 21) (peptide)
peptide: IAFPTSISV
B19: peptide FASEVSNVL (SEQ ID NO: 29) (peptide)
peptide: FASEVSNVL
B20: peptide NLSETASTMAL (SEQ ID NO: 25) (peptide)
peptide: NLSETASTMAL
B21: peptide SLSPDLSQV (SEQ ID NO: 18) (peptide)
peptide: SLSPDLSQV
B22: peptide TAQTLVRIL (SEQ ID NO: 26) (peptide)
peptide: TAQTLVRIL
B23: peptide SAFPFPVTVSL (SEQ ID NO: 10) (peptide)
peptide: SAFPFPVTVSL
B24: peptide FASGLIHRV (SEQ ID NO: 30) (peptide)
peptide: FASGLIHRV
B25: peptide GLIDEVMVLL (SEQ ID NO: 5) (peptide)
peptide: GLIDEVMVLL
B26: peptide IAIPFLIKL (SEQ ID NO: 31) (peptide)
peptide: IAIPFLIKL
B27: peptide ALAEQVQKA (SEQ ID NO: 27) (peptide)
peptide: ALAEQVQKA
B28: peptide TAYPQVVVV (SEQ ID NO: 19) (peptide)
peptide: TAYPQVVVV
B29: peptide SIIDFTVTM (SEQ ID NO: 11) (peptide)
peptide: SIIDFTVTM
B30: peptide YASGSSASL (SEQ ID NO: 28) (peptide)
peptide: YASGSSASL
B31: peptide YAAEIASAL (SEQ ID NO: 1) (peptide)
peptide: YAAEIASAL
modifications: also: trifluoroacetate salt
B32: peptide LSASLVRIL (SEQ ID NO: 8) (peptide)
peptide: LSASLVRIL

The target of the experiment is T1, HLA-A*02:01 (peptide-receptive MHC class I molecule after UV-ligand exchange) (human).
T1 construct: monomers captured on streptavidin-coated plates; also called peptide-receptive MHC molecules; MHC monomers
Briefly: UV-ligand exchange, anti-b2m ELISA; peptide exchange yield grade (>10% = +; >20% = ++; >50 = +++; >75% = ++++). The text has this:
Candidate peptides for T cell based therapies according to the present invention were further tested for their MHC binding capacity (affinity). The individual peptide-MHC complexes were produced by UV-ligand exchange, where a UV-sensitive peptide is cleaved upon UV-irradiation, and exchanged with the peptide of interest as analyzed. Only peptide candidates that can effectively bind and stabilize the peptide-receptive MHC molecules prevent dissociation of the MHC complexes. To determine the yield of the exchange reaction, an ELISA was performed based on the detection of the light chain (β2m) of stabilized MHC complexes. The assay was performed as generally described in Rodenko et al. (Rodenko et al., 2006).
96 well MAXISorp plates (NUNC) were coated over night with 2 ug/ml streptavidin in PBS at room temperature, washed 4× and blocked for1 h at 37° C. in 2% BSA containing blocking buffer. Refolded HLA-A*02:01/MLA-001 monomers served as standards, covering the range of 15-500 ng/ml. Peptide-MHC monomers of the UV-exchange reaction were diluted 100-fold in blocking buffer. Samples were incubated for 1 h at 37° C., washed four times, incubated with 2 ug/ml HRP conjugated anti-β2 m for 1 h at 37° C., washed again and detected with TMB solution that is stopped with […]. Absorption was measured at 450 nm. Candidate peptides that show a high exchange yield (preferably higher than 50%, most preferred higher than 75%) are generally preferred for a generation and production of antibodies or fragments thereof, and/or T cell receptors or fragments thereof, as they show sufficient avidity to the MHC molecules and prevent dissociation of the MHC complexes.
In general terms: In an ELISA, binding on a coated surface is turned into a signal by an enzyme label.
With B1, the peptide exchange yield lay in the range of 10 to 20%. The molecule B2 yielded a peptide exchange yield of more than 75%. The figure for B3 is more than 75%; for B4 it is more than 75%; for B5 it is more than 75%.

The molecule B6 came in with a peptide exchange yield of 50 to 75%.

For the molecule B7, the peptide exchange yield is more than 75%. To B8 belongs more than 75%; to B9, more than 75%.

Molecule B10 displayed a peptide exchange yield of more than 75%. To B11 belongs more than 75%; to B12, more than 75%; to B13, more than 75%. Turning to B14, the peptide exchange yield lay within 20 to 50%. To B15 belongs more than 75%.

B16: the peptide exchange yield is 10 to 20%.

The molecule B17 had a peptide exchange yield of 50 to 75%. B18 gave a peptide exchange yield of 50 to 75%. The figure for B19 is more than 75%. Molecule B20 showed a peptide exchange yield of more than 75%. As to B21, the peptide exchange yield lay in the range of 50 to 75%. The figure for B22 is 10 to 20%; for B23 it is 20 to 50%; for B24 it is 50 to 75%. To B25 belongs more than 75%; to B26, more than 75%; to B27, 50 to 75%. The figure for B28 is 20 to 50%. As for B29, the peptide exchange yield was more than 75%. The figure for B30 is 10 to 20%. To B31 belongs 50 to 75%; to B32, 10 to 20%.
